{"source": "patent US6380373B1", "about": "“Steroid receptor coactivator compositions and methods of use” (Baylor College of Medicine, priority 1995, dated 2002)", "key": {"GR": {"biological_target": "T1, GR (Homo sapiens, UniProt P04150)", "T1 construct": "expressed in transfected cells; host or cells: HeLa", "T1 sequence (P04150 1-777)": "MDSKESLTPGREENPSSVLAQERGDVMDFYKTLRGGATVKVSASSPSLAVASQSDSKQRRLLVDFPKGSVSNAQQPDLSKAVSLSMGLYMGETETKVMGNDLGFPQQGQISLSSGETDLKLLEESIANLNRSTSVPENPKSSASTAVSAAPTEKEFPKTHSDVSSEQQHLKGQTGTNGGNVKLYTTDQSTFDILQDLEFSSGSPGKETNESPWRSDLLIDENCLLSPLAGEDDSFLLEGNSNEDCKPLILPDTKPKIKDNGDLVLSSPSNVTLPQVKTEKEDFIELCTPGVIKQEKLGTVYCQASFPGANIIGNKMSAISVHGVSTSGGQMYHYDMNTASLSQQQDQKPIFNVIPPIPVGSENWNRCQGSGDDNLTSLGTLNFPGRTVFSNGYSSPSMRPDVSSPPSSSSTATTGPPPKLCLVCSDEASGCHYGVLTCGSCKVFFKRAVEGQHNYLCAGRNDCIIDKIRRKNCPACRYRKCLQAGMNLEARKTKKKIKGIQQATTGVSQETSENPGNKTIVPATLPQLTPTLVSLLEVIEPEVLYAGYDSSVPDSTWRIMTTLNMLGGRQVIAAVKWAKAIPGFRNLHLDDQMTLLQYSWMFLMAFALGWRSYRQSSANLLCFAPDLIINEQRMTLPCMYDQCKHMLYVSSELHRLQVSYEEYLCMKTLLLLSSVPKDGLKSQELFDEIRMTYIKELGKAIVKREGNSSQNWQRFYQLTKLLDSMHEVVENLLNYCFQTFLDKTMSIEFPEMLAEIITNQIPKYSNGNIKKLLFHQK", "assay": "CAT reporter assay GR/PRE2-TATA-CAT in HeLa cells", "type": "cell-based", "settings": "3 μg SRC-1, dexamethasone 2×10^−8 M", "description": "Biol. 13, 6501-6508), Sp1 and Sp1-tk-CAT (Courey, A. J. and Tjian, R. (1988), Cell 55, 887-898), CREB and CRE-tk-CAT (Chrivia, J. C. et al., (1993), Nature 365, 855) and GAL4VP16 and 17mer-tk-CAT (Baniahmad, A. et al., (1992), EMBO J. 11, 1015-1023) have been previously described and the above references are incorporated herein by reference in their entirety, including any drawings.\n(§1) Lipofectin (GibcoBRL) was selected for transfection of Hela cells.\nHeLa cells were cotransfected with 0.5 μg of cDNAs encoding various steroid receptors indicated and 5 μg of their cognates HREs containing reporters, including PR/PRE2-TATA-CAT, ER/ERE2-TATA-CAT, GR/PRE2-TATA-CAT, TR-/DR4-tk-CAT and RXR/DR1-tk-CAT, along with 3 μg of SRC-1 or empty expression vector. Cells were then treated with their corresponding ligands (PR:R5020, ER:estradiol, GR:dexamethasone, TR:Triac, RXR:9-cis retinoic acid) at a concentration of 2×10^−8M. The CAT activity of the reporter was determined using 14 μg of protein extract."}, "[1]": {"biological_target": "human progesterone receptor B isoform (hPRB) (human) (UniProt P06401)", "assay": "cell-based or functional assay"}, "E2F": {"biological_target": "T2, E2F (Homo sapiens, UniProt Q01094)", "T2 construct": "expressed in transfected cells; host or cells: HeLa", "T2 sequence (Q01094 whole entry)": "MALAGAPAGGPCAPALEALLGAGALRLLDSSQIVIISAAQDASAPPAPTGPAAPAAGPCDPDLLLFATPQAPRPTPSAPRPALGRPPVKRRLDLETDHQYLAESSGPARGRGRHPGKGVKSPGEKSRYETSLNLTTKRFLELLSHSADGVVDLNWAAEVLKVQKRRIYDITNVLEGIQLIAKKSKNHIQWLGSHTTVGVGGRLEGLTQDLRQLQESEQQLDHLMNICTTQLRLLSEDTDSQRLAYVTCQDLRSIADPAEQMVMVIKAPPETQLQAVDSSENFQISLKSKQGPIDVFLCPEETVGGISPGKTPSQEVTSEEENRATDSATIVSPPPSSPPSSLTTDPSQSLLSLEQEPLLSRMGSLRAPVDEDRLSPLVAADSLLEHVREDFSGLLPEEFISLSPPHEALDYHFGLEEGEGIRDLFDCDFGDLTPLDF", "assay": "CAT reporter assay E2F/E2F-tk-CAT in HeLa cells", "type": "cell-based", "description": "as §1\nThe CAT activity of the reporter was determined."}, "hPR": {"biological_target": "T3, hPR (Homo sapiens, UniProt P06401)", "T3 construct": "expressed in transfected cells; host or cells: HeLa", "T3 sequence (P06401 1-933)": "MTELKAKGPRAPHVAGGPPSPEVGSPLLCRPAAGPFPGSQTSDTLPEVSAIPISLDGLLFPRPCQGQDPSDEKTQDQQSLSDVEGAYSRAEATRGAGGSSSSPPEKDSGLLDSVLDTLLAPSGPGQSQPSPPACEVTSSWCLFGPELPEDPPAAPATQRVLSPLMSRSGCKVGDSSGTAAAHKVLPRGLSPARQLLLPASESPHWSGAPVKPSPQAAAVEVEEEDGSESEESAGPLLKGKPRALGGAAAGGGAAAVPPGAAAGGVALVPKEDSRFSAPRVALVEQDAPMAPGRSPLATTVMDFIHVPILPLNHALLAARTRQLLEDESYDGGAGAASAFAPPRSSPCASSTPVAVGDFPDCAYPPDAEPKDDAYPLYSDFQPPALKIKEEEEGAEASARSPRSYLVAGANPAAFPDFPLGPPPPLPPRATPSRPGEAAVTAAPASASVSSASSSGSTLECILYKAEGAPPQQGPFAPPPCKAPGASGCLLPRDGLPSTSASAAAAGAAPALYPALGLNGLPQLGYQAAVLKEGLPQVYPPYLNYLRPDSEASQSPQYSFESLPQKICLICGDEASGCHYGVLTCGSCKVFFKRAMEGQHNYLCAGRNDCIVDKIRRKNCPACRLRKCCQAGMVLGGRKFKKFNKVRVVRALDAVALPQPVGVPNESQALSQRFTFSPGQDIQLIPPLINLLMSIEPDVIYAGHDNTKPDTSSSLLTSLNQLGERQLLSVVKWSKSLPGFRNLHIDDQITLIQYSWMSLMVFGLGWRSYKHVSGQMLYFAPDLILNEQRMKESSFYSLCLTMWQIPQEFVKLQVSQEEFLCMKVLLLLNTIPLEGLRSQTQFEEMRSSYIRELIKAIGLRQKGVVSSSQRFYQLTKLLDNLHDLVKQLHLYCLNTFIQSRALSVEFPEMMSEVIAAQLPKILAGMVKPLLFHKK", "assay": "Transient transfection CAT reporter assay, hPRB with PRE2-TATA-CAT in HeLa cells", "type": "cell-based", "description": "as §1\nTo further investigate the role of SRC-1 in receptor transactivation of target gene expression, transient transfection assays were carried out in mammalian cell lines. HeLa cells were cotransfected with mammalian expression vectors for full-length SRC-1 and hPRB together with a plasmid containing two copies of the progesterone-responsive DNA element (PRE) inserted in front of the TATA box of the E1b adenovirus, linked to the chloramphenicol acetyl transferase (CAT) reporter gene, PRE2-TATA-CAT.\nCells were harvested 42 h after transfection and the chloramphenicol acetyl transferase (CAT) activity determined using 8 μg of protein extract."}}}
{"molecule": "steroid receptor coactivator-one (SRC-1), full-length (protein) MSIPRVNPSVNPSISPAHGVARSSTLPPSNSNMVSTRINRQQSSDLHSSSHSNSSNSQGSFGCSPGSQIVANVALNKGQASSQSSKPSLNLNNPPMEGTGISLAQFMSPRRQVTSGLATRPRMPNNSFPPNISTLSSPVGMTSSACNNNNRSYSNIPVTSLQGMNEGPNNSVGFSASSPVLRQMSSQNSPSRLNIQPAKAESKDNKEIASTLNEMIQSDNSSSDGKPLDSGLLHNNDRLSDGDSKYSQTSHKLVQLLTTTAEQQLRHADIDTSCKDVLSCTGTSNSASANSSGGSCPSSHSSLTARHKILHRLLQEGSPSDITTLSVEPDKKDSASTSVSVTGQVQGNSSIKLELDASKKKESKDHQLLRYLLDKDEKDLRSTPNLSLDDVKVKVEKKEQMDPCNTNPTPMTKATPEEIKLEAQSQFTADLDQFDQLLPTLEKAAQLPGLCETDRMDGAVTSVTIKSEILPASLQSATARPTSRLNRLPELELEAIDNQFGQPGTGDQIPWTNNTVTAINQSKSEDQCISSQLDELLCPPTTVEGRNDEKALLEQLVSFLSGKDETELAELDRALGIDKLVQGGGLDVLSERFPPQQATPPLIMEERPNLYSQPYSSPFPTANLPSPFQGMVRQKPSLGTMPVQVTPPRGAFSPGMGMQPRQTLNRPPAAPNQLRLQLQQRLQGQQQLIHQNRQAILNQFAATAPVGINMRSGMQQQITPQPPLNAQMLAQRQRELYSQQHRQRQLIQQQRAMLMRQQSFGNNLPPSSGLPVQTGNPRLPQGAPQQFPYPPNYGTNPGTPPASTSPFSQLAANPEASLANRNSMVSRGMTGNIGGQFGTGINPQMQQNVFQYPGAGMVPQGEANFAPSLSPGSSMVPMPIPPPQSSLLQQTPPASGYQSPDMKAWQQGAIGNNNVFSQAVQNQPTPAQPGVYNNMSITVSMAGGNTNVQNMNPMMAQMQMSSLQMPGMNTVCPEQINDPALRHTGLYCNQLSSTDLLKTEADGTQQVQQVQVFADVQCTVNLVGGDPYLNQPGPLGTQKPTSGPQTPQAQQKSLLQQLLTE", "values": [{"measurement": "effect on GR transcriptional activity", "setting": "GR", "value": "enhance"}, {"measurement": "fold induction of PRE2-TATA-CAT reporter activity over the hormone-induced receptor activity (HeLa cells, R5020)", "setting": "[1]", "value": 14, "unit": "fold"}, {"measurement": "reversal of hER squelching of hPR-mediated CAT reporter activity (HeLa cells)", "setting": "[1]", "value": 16, "unit": "fold"}, {"measurement": "stimulation of PR transactivation at the highest concentration of SRC-1 (2 µg), CAT reporter", "setting": "[1]", "value": 5, "unit": "fold"}, {"measurement": "effect on E2F transcriptional activity", "setting": "E2F", "value": "did not alter"}, {"measurement": "effect on reporter construct activity in the absence of PR binding site", "setting": "hPR; ERE2-TATA-CAT reporter with hPRB, with or without ligand", "value": "no effect"}, {"measurement": "effect on PR transcriptional activity", "setting": "hPR; HeLa cells, 3 μg SRC-1, R5020 2×10^−8 M, PRE2-TATA-CAT", "value": "enhance"}, {"measurement": "effect on RU486-antagonized receptor transcriptional activity", "setting": "hPR; HeLa cells, SRC-1 coexpressed, R5020 plus RU486", "value": "unable to augment and/or recover to any extent"}, {"measurement": "induction over the hormone-induced receptor activity", "setting": "hPR; HeLa cells, full-length SRC-1 cDNA (3 μg) coexpressed with hPR, 2×10^−8 M R5020, mean of seven experiments ± SEM", "value": "14.0±3.3", "unit": "fold"}, {"measurement": "activity of ligand-free hPR on the reporter", "setting": "hPR; HeLa cells, no hormone, in the absence or presence of SRC-1", "value": "minimal activity"}, {"measurement": "enhancement of hormone-induced transcriptional activity", "setting": "hPR; coexpression of SRC-1 with receptor in mammalian cells, summary statements", "value": "> 10", "unit": "fold"}]}
